One assay has as its system IRAK1b. Description: GST-pulldown of IRAK1b. Particulars: qualitative; HEK293T lysates; kinase-inactive IRAK1b.
For a further assay, the target named is IRAK1-ki. Briefly: GST-pulldown of kinase-inactive mutant IRAK1-ki. Particulars: qualitative, HEK293T lysates.

Entries after “also recorded” stand apart in the source; their conditions may differ.

In the case of “Purified Pellino2 (from UniProt Q9HAT8 1-420) (natural protein)”, in the assay with Rad9(pT192) peptide, the Kd is more than 100 µM.

B1: Pellino2: GST-fusion protein of full-length Pellino2 (human cDNA) (protein)
chain: MFSPGQEEHCAPNKEPVKYGELVVLGYNGALPNGDRGRRKSRFALYKRPKANGVKPSTVHVISTPQASKAISCKGQHSISYTLSRNQTVVVEYTHDKDTDMFQVGRSTESPIDFVVTDTISGSQNTDEAQITQSTISRFACRIVCDRNEPYTARIFAAGFDSSKNIFLGEKAAKWKNPDGHMDGLTTNGVLVMHPRGGFTEESQPGVWREISVCGDVYTLRETRSAQQRGKLVESETNVLQDGSLIDLCGATLLWRTADGLFHTPTQKHIEALRQEINAARPQCPVGLNTLAFPSINRKEVVEEKQPWAYLSCGHVHGYHNWGHRSDTEANERECPMCRTVGPYVPLWLGCEAGFYVDAGPPTHAFTPCGHVCSEKSAKYWSQIPLPHGTHAFHAACPFCATQLVGEQNCIKLIFQGPID
modifications: left off: His6, N-terminal, cleaved
On to B1, for which the “interaction with IRAK1b in GST-pulldown” value with IRAK1b was “are not precipitated; also recorded: do not interact”. Besides, the “interaction with IRAK1-ki in GST-pulldown” value at IRAK1-ki is “are not precipitated; also recorded: do not interact”.

By Kd is commonly meant a measure of binding affinity in units of concentration. Low readings indicate higher affinity, high ones lower affinity.

(Values after article PMC4205158 (Structure (London, England : 1993), 2008).)
